Test results reported in US20250002610A1 (Genmab, published 2025).

T1: human FAPα (Fibroblast activation protein alpha), cell surface expressed (human, UniProt Q12884 1-760)
T1 construct: Endogenous on human lung fibroblasts and CAFs
T1 sequence: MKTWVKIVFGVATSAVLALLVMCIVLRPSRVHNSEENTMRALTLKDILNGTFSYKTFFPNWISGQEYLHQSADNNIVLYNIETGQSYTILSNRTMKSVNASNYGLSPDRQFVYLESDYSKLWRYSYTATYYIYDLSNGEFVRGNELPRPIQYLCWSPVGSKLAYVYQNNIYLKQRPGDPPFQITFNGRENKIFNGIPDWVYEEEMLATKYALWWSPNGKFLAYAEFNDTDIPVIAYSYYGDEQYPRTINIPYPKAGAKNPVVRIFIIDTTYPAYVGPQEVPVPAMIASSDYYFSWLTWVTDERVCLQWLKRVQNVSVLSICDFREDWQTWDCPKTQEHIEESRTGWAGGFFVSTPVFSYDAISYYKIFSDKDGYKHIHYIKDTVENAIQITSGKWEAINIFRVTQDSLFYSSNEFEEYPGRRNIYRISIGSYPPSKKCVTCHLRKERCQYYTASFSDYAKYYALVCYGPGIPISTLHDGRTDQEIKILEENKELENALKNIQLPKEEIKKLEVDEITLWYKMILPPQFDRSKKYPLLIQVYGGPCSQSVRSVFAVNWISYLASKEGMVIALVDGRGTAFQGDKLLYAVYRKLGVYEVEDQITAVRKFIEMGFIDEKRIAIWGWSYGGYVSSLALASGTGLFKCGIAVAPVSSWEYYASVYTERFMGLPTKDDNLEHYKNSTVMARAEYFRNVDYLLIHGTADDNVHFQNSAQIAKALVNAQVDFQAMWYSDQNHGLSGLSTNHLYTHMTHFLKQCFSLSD

T2: human DR4 (Death Receptor 4), cell surface expressed on human tumor cell lines (human, UniProt O00220 24-468)
T2 construct: also called TNFRSF10A; TRAIL-R1
T2 sequence: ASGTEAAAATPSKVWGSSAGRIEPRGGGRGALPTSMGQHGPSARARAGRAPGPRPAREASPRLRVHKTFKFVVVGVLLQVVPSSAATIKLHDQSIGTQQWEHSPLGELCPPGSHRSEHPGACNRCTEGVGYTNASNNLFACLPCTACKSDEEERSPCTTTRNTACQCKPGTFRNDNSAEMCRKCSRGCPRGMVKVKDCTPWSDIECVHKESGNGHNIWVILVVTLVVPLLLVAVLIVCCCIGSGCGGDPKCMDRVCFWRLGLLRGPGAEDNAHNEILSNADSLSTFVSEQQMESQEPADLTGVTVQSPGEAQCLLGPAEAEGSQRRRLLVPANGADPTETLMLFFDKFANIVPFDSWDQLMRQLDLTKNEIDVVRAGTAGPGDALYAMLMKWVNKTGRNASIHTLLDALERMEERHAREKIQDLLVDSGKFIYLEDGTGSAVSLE

B1: IgG1-FAPα-FEAL (antibody)
heavy: EVQLLESGGGLVQPGGSPRLSCEASGFTFSSYALSWVRQAPGKGLEWVSAISGSGGGRYYADSVKGRFTISRDNSKNTLFLQMNSLRAEDTAVYYCAKEGYSSSGTYWDHWGQGTLVTVSSASTKGPSVFPLAPSSKSTSGGTAALGCLVKDYFPEPVTVSWNSGALTSGVHTFPAVLQSSGLYSLSSVVTVPSSSLGTQTYICNVNHKPSNTKVDKRVEPKSCDKTHTCPPCPAPEFEGGPSVFLFPPKPKDTLMISRTPEVTCVVVAVSHEDPEVKFNWYVDGVEVHNAKTKPREEQYNSTYRVVSVLTVLHQDWLNGKEYKCKVSNKALPAPIEKTISKAKGQPREPQVYTLPPSREEMTKNQVSLTCLVKGFYPSDIAVEWESNGQPENNYKTTPPVLDSDGSFLLYSKLTVDKSRWQQGNVFSCSVMHEALHNHYTQKSLSLSPG
light: AIQMTQSPSSVSASVGDRVTITCRASQGVSSWLAWYQQKPGRAPKLLIYVASTLQSGVPSRFSGSGSGTDFTLTINSLQPEDFATYYCQQANSFPPTFGQGTRLEMKRTVAAPSVFIFPPSDEQLKSGTASVVCLLNNFYPREAKVQWKVDNALQSGNSQESVTEQDSKDSTYSLSSTLTLSKADYEKHKVYACEVTHQGLSSPVTKSFNRGEC
B2: IgG1-DR4-T1014A04-FEAR (antibody, V domains shown)
VH: EVQLVQSGADVKRPGASVKVSCKISGDSFNAYFIHWVRQAPGQGLEWMGWFNPDSGTADSAQKFHGRVTMTRDTSSSTAFLELSRLRSDDTAVYYCVRQHRGNTFAPWGRGTMVTVSS
VL: QSVLTQPPSASGSPGQSVTISCTGTTSDVGGYNYVSWYQQHPGKAPKLMIYGVNQRPSGVPDRFSGSKSGNTASLTVSGLQAEDEADYYCSSYAGSNNWVFGGGTKLTVLG
notes: Prior art DR4 clone (US 7,361,341 B2)
B3: BisG1-b12-FEAL/DR4-chCTB007-FEAR (bispecific antibody, human IgG1, kappa)
heavy 1: QVQLVQSGAEVKKPGASVKVSCQASGYRFSNFVIHWVRQAPGQRFEWMGWINPYNGNKEFSAKFQDRVTFTADTSANTAYMELRSLRSADTAVYYCARVGPYSWDDSPQDNYYMDVWGKGTTVIVSSASTKGPSVFPLAPSSKSTSGGTAALGCLVKDYFPEPVTVSWNSGALTSGVHTFPAVLQSSGLYSLSSVVTVPSSSLGTQTYICNVNHKPSNTKVDKRVEPKSCDKTHTCPPCPAPEFEGGPSVFLFPPKPKDTLMISRTPEVTCVVVAVSHEDPEVKFNWYVDGVEVHNAKTKPREEQYNSTYRVVSVLTVLHQDWLNGKEYKCKVSNKALPAPIEKTISKAKGQPREPQVYTLPPSREEMTKNQVSLTCLVKGFYPSDIAVEWESNGQPENNYKTTPPVLDSDGSFLLYSKLTVDKSRWQQGNVFSCSVMHEALHNHYTQKSLSLSPG
light 1: EIVLTQSPGTLSLSPGERATFSCRSSHSIRSRRVAWYQHKPGQAPRLVIHGVSNRASGISDRFSGSGSGTDFTLTITRVEPEDFALYYCQVYGASSYTFGQGTKLERKRTVAAPSVFIFPPSDEQLKSGTASVVCLLNNFYPREAKVQWKVDNALQSGNSQESVTEQDSKDSTYSLSSTLTLSKADYEKHKVYACEVTHQGLSSPVTKSFNRGEC
heavy 2: EVQLQQSGAELVKPGASVKLSCTASGFNIKDTYMHWVKQRPEQGLEWIGRIDPANGNTKYDPKFQGKATITADTSSNTAYLQLSSLTSEDTAVYYCAYYYVSNAWFTYWGQGTLVTVSAASTKGPSVFPLAPSSKSTSGGTAALGCLVKDYFPEPVTVSWNSGALTSGVHTFPAVLQSSGLYSLSSVVTVPSSSLGTQTYICNVNHKPSNTKVDKRVEPKSCDKTHTCPPCPAPEFEGGPSVFLFPPKPKDTLMISRTPEVTCVVVAVSHEDPEVKFNWYVDGVEVHNAKTKPREEQYNSTYRVVSVLTVLHQDWLNGKEYKCKVSNKALPAPIEKTISKAKGQPREPQVYTLPPSREEMTKNQVSLTCLVKGFYPSDIAVEWESNGQPENNYKTTPPVLDSDGSFFLYSRLTVDKSRWQQGNVFSCSVMHEALHNHYTQKSLSLSPG
light 2: DIQMTQSPASLSVSVGETVTITCRASENIYSNLEWYQQKQGKSPQLLVYAATNLADGVPSRFSGSGSGTQYSLKINSLQSEDFGSYYCQHFWGTWTFGGGTKLEIKRTVAAPSVFIFPPSDEQLKSGTASVVCLLNNFYPREAKVQWKVDNALQSGNSQESVTEQDSKDSTYSLSSTLTLSKADYEKHKVYACEVTHQGLSSPVTKSFNRGEC
notes: Fab-arm exchange of IgG1-b12-FEAL and IgG1-DR4-chCTB007-FEAR
B4: BisG1-FAP5-FEAL/b12-FEAR (bispecific antibody, human IgG1, kappa)
heavy 1: QVQLQQSGAELARPGASVNLSCLASGYTFTNNGINWLKQRTGQGLEWIGEIYPRSTNTLYNEKFKGKATLTADRSSNTAYMELRSLTSEDSAVYFCARTLTAPFAFWGQGTLVTVSSASTKGPSVFPLAPSSKSTSGGTAALGCLVKDYFPEPVTVSWNSGALTSGVHTFPAVLQSSGLYSLSSVVTVPSSSLGTQTYICNVNHKPSNTKVDKRVEPKSCDKTHTCPPCPAPEFEGGPSVFLFPPKPKDTLMISRTPEVTCVVVAVSHEDPEVKFNWYVDGVEVHNAKTKPREEQYNSTYRVVSVLTVLHQDWLNGKEYKCKVSNKALPAPIEKTISKAKGQPREPQVYTLPPSREEMTKNQVSLTCLVKGFYPSDIAVEWESNGQPENNYKTTPPVLDSDGSFLLYSKLTVDKSRWQQGNVFSCSVMHEALHNHYTQKSLSLSPG
light 1: QIVLTQSPAIMSASPGELVTMTCSASSGVNFMHWYQQLSGTSPKRWIFDTSKLASGVPARFSGSGSGTSYSLTISSMEAEDAATYYCQQWSFNPPTFGGGTKLEIKRTVAAPSVFIFPPSDEQLKSGTASVVCLLNNFYPREAKVQWKVDNALQSGNSQESVTEQDSKDSTYSLSSTLTLSKADYEKHKVYACEVTHQGLSSPVTKSFNRGEC
heavy 2: QVQLVQSGAEVKKPGASVKVSCQASGYRFSNFVIHWVRQAPGQRFEWMGWINPYNGNKEFSAKFQDRVTFTADTSANTAYMELRSLRSADTAVYYCARVGPYSWDDSPQDNYYMDVWGKGTTVIVSSASTKGPSVFPLAPSSKSTSGGTAALGCLVKDYFPEPVTVSWNSGALTSGVHTFPAVLQSSGLYSLSSVVTVPSSSLGTQTYICNVNHKPSNTKVDKRVEPKSCDKTHTCPPCPAPEFEGGPSVFLFPPKPKDTLMISRTPEVTCVVVAVSHEDPEVKFNWYVDGVEVHNAKTKPREEQYNSTYRVVSVLTVLHQDWLNGKEYKCKVSNKALPAPIEKTISKAKGQPREPQVYTLPPSREEMTKNQVSLTCLVKGFYPSDIAVEWESNGQPENNYKTTPPVLDSDGSFFLYSRLTVDKSRWQQGNVFSCSVMHEALHNHYTQKSLSLSPG
light 2: EIVLTQSPGTLSLSPGERATFSCRSSHSIRSRRVAWYQHKPGQAPRLVIHGVSNRASGISDRFSGSGSGTDFTLTITRVEPEDFALYYCQVYGASSYTFGQGTKLERKRTVAAPSVFIFPPSDEQLKSGTASVVCLLNNFYPREAKVQWKVDNALQSGNSQESVTEQDSKDSTYSLSSTLTLSKADYEKHKVYACEVTHQGLSSPVTKSFNRGEC
notes: Fab-arm exchange of IgG1-FAP5-FEAL and IgG1-b12-FEAR

Key:
[1] = target: T1, human FAPα (Fibroblast activation …); test: flow cytometry, human lung fibroblasts, n = 1
Procedure: (§1) Human lung fibroblasts and CAFs (50,000 cells/well) were seeded in 96-Well round bottom plates (Greiner Bio-one, Cat #650101). Antibody dilutions were prepared using fluorescence-activated cell sorting (FACS) buffer, consisting of phosphate buffer saline (PBS, Lonza, Cat #BE17-517Q)+1% Bovine Serum Albumin (BSA, Roche, Cat #10735086001)+0.02% Sodium Azide (Bio-World, Cat #41920044-3). Plates were centrifuged, supernatant was removed, cells were resuspended in 50 μL of human Fc Block (BD, Cat #564220, diluted 1:100 in FACS buffer) and 50 μL of viability stain TO-PRO-3 Iodide (Thermo Fisher, Cat #T3605, diluted 1: 25,000 in FACS buffer), and incubated for 15 min at 4° C. Plates were washed three times with FACS buffer. Plates were centrifuged, supernatant was removed, cells were resuspended in 50 μL of antibody dilutions (concentration range 90-0.0005 μg/mL, three-fold dilution steps using FACS buffer) of BisG1-FAPα-FERL/DR4-FERR, BisG1-FAPα-FERL/b12-FERR, BisG1-b12-FERL/b12-FERR (top six concentrations only for CAFs culture) or IgG1-FAPα-FERL (top four concentrations only for CAFs culture) and incubated for 30 min at 4° C. Cells were washed three times with FACS buffer and resuspended in 50 μL of Fluorescein isothiocyanate (FITC)-labeled polyclonal antibody goat anti-mouse IgG1 (Jackson Immuno Research, Cat #109-096-097, diluted 1:100 in FACS buffer). After 30 min incubation at 4° C., cells were washed twice with FACS buffer and resuspended in FACS buffer. Antibody binding to viable cells (TO-PRO-3 negative) was analyzed by flow cytometry on a FACSCelesta™ (BD biosciences) and data were processed using FlowJo_v10.8.1 (FlowJo LLC). Geomean fluorescence intensity, gMFI, was determined and visualized using GraphPad Prism. Binding curves were analyzed using nonlinear regression analysis. The concentration (pg/mL) at which 50% of the maximal effect was observed (EC₅₀) was derived from the fitted curves.
(§2) Binding of FAPα-targeting monoclonal antibody clones, IgG1-FAPα-FEAL and IgG1-FAP5-FEAL, and bispecific antibodies carrying a binding arm derived from the two FAPα-binding clones (BisG1-FAPα-FEAL/b12-FEAR and BisG1-FAP5-FEAL/b12-FEAR) to human lung fibroblasts, which endogenously express FAPα, was compared and analyzed by flow cytometry.

[2] = target: T2, human DR4 (Death Receptor 4), cell …; test: flow cytometry, MDA-MB-231 cells, N = 2
[3] = target: T2, human DR4 (Death Receptor 4), cell …; test: flow cytometry, MDA-MB-231 cells, average ± SEM
[4] = target: T2, human DR4 (Death Receptor 4), cell …; test: flow cytometry, MDA-MB-231 cells, N = 1
[5] = target: T1, human FAPα (Fibroblast activation …); test: flow cytometry, human lung fibroblasts, n = 2
Procedure: as §1, with “After 30 min incubation at 4° C., cells were washed twice with FACS buffer and resuspended in FACS buffer.” left out, “The concentration (pg/mL) at which 50% of the maximal effect was observed (EC₅₀) was derived from the fitted curves.” left out
as §2

Binder | EC50 [1] [µg/mL] | EC50 [2] [µg/mL] | Max MFI (at 90 µg/mL) [2] [MFI] | EC50 [3] [µg/mL] | Max MFI (at 90 µg/mL) [3] [MFI] | EC50 [4] [µg/mL] | Max MFI (at 90 µg/mL) [4] [MFI] | EC50 [5] [µg/mL]
B1 | 0.014 |  |  |  |  |  |  | 
B2 |  | 2.04 | 1610 | 1.25 | 1280 | 0.45 | 953 | 
B3 |  | 2.68 | 2160 | 2.14 | 2550 | 1.61 | 2950 | 
B4 | 0.58 |  |  |  |  |  |  | 0.62
